Experimental data reported in patent US20260191929A1.

Molecular target: mouse CD117 (stem cell factor receptor, c-Kit) on mouse bone marrow and lung cells (mouse) (UniProt P05532)
Test: cell-based or functional assay

UniProt P05532, sequence (P05532 25-979): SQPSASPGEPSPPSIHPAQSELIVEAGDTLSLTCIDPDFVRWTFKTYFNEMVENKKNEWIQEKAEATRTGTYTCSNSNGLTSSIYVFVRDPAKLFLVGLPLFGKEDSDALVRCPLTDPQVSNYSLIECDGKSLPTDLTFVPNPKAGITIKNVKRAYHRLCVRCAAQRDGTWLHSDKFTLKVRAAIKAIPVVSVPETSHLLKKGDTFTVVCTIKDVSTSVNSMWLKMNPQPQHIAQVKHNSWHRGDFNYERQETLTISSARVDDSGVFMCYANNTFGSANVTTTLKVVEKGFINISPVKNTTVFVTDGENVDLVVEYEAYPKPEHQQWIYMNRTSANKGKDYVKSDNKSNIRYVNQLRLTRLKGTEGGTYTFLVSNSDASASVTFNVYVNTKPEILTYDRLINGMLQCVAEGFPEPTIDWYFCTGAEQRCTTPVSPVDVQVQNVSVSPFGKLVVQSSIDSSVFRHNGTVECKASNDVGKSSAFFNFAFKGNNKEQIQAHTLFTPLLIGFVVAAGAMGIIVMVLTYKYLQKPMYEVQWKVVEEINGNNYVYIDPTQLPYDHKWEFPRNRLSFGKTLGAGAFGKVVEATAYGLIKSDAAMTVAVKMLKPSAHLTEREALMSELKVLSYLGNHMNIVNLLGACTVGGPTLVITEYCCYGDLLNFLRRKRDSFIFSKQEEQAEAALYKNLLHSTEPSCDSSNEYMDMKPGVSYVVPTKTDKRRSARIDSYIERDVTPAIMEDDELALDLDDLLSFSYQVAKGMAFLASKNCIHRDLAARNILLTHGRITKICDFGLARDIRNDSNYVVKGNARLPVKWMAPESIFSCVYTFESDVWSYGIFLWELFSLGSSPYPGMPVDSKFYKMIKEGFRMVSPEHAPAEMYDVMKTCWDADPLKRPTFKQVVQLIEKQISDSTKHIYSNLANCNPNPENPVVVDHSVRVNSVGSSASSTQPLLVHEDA

“purified rat anti-mouse CD117 (c-kit), clone 2B8 (BioLegend 93235), conjugated to LNP-mRNA (antibody)” gave a gene editing (tdTomato) frequency in cKit+ lung cells after in vivo CD117/LNP-Cre of 90%, a luciferase activity normalized to the frequency of antigen positive cells, Lin- cells, relative to CD45/LNP of 700 fold and a luciferase activity normalized to the frequency of antigen positive cells, whole bone marrow (WBM), relative to CD45/LNP of 500 fold.
